Results reported in patent US20250043302A1, “MUTATED HYDROXYPHENYLPYRUVATE DIOXYGENASE POLYPEPTIDE, AND CODING GENE AND USE THEREOF” (BEIJING DABEINONG BIOTECHNOLOGY CO., LTD., priority 2021, published 2025).

What was measured:
[1] = tested on: Arabidopsis thaliana T1 plants; experiment: Isoxaflutole tolerance of transgenic Arabidopsis thaliana T1 plants (spray, bleached leaf area grade, damage score); format: in vivo; conditions: Table 11; for Classification and statistics of the grade of pesticide damage Grade 0: number of plants at grade 0; for Classification and statistics of the grade of pesticide damage Grade 1: number of plants at grade 1; for Classification and statistics of the grade of pesticide damage Grade 2: number of plants at grade 2; for Classification and statistics of the grade of pesticide damage Grade 3: number of plants at grade 3; for Scores: pesticide damage score;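 on Scores: Weighted damage index from 0 to 100 where higher means more damage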
Description: T1 transformants were initially selected from the untransformed seeds using a glufosinate selection scheme. The Arabidopsis thaliana T1 plants (AsHPPD-02) into which the AsHPPD-02 nucleotide sequence was introduced, the Arabidopsis thaliana T1 plants (AsHPPDm-F372A-02) into which the AsHPPDm-F372A-02 nucleotide sequence was introduced, the Arabidopsis thaliana T1 plants (AsHPPDm-F383W-02) into which the AsHPPDm-F383W-02 nucleotide sequence was introduced, the Arabidopsis thaliana T1 plants (AsHPPDm-F372A-F383W-02) into which the AsHPPDm-F372A-F383W-02 nucleotide sequence was introduced, the Arabidopsis thaliana T1 plants (DBN11726N) into which the control recombinant expression vector DBN11726N was introduced, and the wild-type Arabidopsis thaliana plants (CK) (18 days after sowing) were sprayed respectively with topramezone at three concentrations (100 g ai/ha (four-fold field concentration, 4×), 200 g ai/ha (eight-fold field concentration, 8×), and 0 g ai/ha (water, 0×)), isoxaflutole at three concentrations (140 g ai/ha (two-fold field concentration, 2×), 280 g ai/ha (four-fold field concentration, 4×), and 0 g ai/ha (water, 0×)), and mesotrione at three concentrations (210 g ai/ha (two-fold field concentration, […]), 420 g ai/ha (four-fold field concentration, 4×), and 0 g ai/ha (water, 0×)), to determine the tolerance of Arabidopsis thaliana to the herbicides. The degree of damage caused by the herbicide was measured for each plant according to the proportion of bleached leaf area (the proportion of bleached leaf area=bleached leaf area/total leaf area×100%) 7 days after spraying (7 DAT): the case where there is basically no bleached phenotype is defined as grade 0, the case where the proportion of bleached leaf area is less than 50% is defined as grade 1, the case where the proportion of bleached leaf area is more than 50% is defined as grade 2, and the case where the proportion of bleached leaf area is 100% grade is defined as grade 3.
According to the method as described above in point 6 of Example 1, the aforementioned Arabidopsis thaliana T1 plants and wild-type Arabidopsis thaliana plants (CK) (18 days after sowing) were sprayed respectively with topramezone at three concentrations (25 g ai/ha (one-fold field concentration, 1×). 100 g ai/ha (four-fold field concentration, 4×), and 0 g ai/ha (water, 0×)), isoxaflutole at three concentrations (35 g ai/ha (half-fold field concentration, 0.5×). 70 g ai/ha (one-fold field concentration, 1×), and 0 g ai/ha (water, 0×)), and mesotrione at three concentrations (52.5 g ai/ha (half-fold field concentration, 0.5×), 105 g ai/ha (one-fold field concentration, 1×), and 0 g ai/ha (water, 0×)) to detect the tolerance of Arabidopsis thaliana to the herbicides.
According to the method as described above in point 6 of Example 1, the aforementioned Arabidopsis thaliana T1 plants and wild-type Arabidopsis thaliana plants (CK) (18 days after sowing) were sprayed with topramezone at three different concentrations (i.e., 100 g ai/ha (four-fold field concentration, 4×), 200 g ai/ha (eight-fold field concentration, 8×) and 0 g ai/ha (water, 0×)), isoxaflutole at three different concentrations (i.e., 140 g ai/ha (two-fold field concentration, 2×), 280 g ai/ha (four-fold field concentration, 4×) and 0 g ai/ha (water, 0×)), and mesotrione at three different concentrations (i.e., 210 g ai/ha (two-fold field concentration, 2×), 420 g ai/ha (four-fold field concentration, 4×) and 0 g ai/ha (water, 0×)) respectively to detect the herbicide tolerance of Arabidopsis thaliana. […]

[2] = tested on: Arabidopsis thaliana T1 plants; experiment: Mesotrione tolerance of transgenic Arabidopsis thaliana T1 plants (spray, bleached leaf area grade, damage score); format: in vivo; design: Scores: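 damage score 0-100 computed as Σ(N×S)/(T×M)×100 over grades 0-3 with higher meaning more damage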; conditions: Table 12; for Classification and statistics of the grade of pesticide damage Grade 0: number of plants at grade 0; for Classification and statistics of the grade of pesticide damage Grade 1: number of plants at grade 1; for Classification and statistics of the grade of pesticide damage Grade 2: number of plants at grade 2; for Classification and statistics of the grade of pesticide damage Grade 3: number of plants at grade 3; for Scores: pesticide damage score
Summary of the method: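 Damage was assessed by bleaching grade (0 none; 1 <50%; 2 >50%; 3 100% of leaf area) one week after spraying. Sprays on 18-day-old T1 and wild-type plants used field-rate multiples: topramezone 25–200, isoxaflutole 35–280, mesotrione 52.5–420 g ai/ha.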

B1: AsHPPDm-A107-F383W-02: nucleotide sequence encoding Avena sativa HPPD with A107 deletion+F383W; vector DBN11779 (nucleic acid)
DNA: ATGCCACCTACTCCAGCTACAGCTACTGGTGCTGCTGCTGCTGCCGTTACTCCTGAGCACGCTGCCAGGTCATTCCCCAGGGTGGTTCGCGTGAACCCCAGATCTGATAGGTTCCCAGTTCTGAGCTTCCACCATGTTGAGCTGTGGTGCGCTGATGCTGCTTCTGCTGCTGGCAGGTTCTCTTTCGCTCTTGGTGCTCCACTCGCTGCTAGATCTGATCTGTCTACAGGAAATAGCGCTCATGCCTCACTCCTGCTTCGCTCAGGTGCTTTGGCCTTCCTCTTCACCGCTCCATATGCTCCCCCACCTCAGGAGGCTACTGCTGCTGCTACAGCCTCCATTCCAAGCTTCTCAGCTGATGCCGCTAGAACCTTCGCTGCTGCTCATGGACTTGCCGTGAGGTCTGTTGGTGTTCGCGTGGCTGATGCTGCTGAGGCTTTCAGAGTTTCCGTTGCCGGCGGAGCTAGGCCAGCTTTCGCTCCTGCTGATTTGGGACATGGTTTCGGCCTGGCTGAGGTTGAGCTTTACGGTGACGTGGTTCTCCGCTTCGTGTCTTACCCAGATGAGACTGACCTGCCTTTCCTTCCCGGCTTCGAGAGAGTTTCCTCTCCTGGTGCCGTGGATTACGGCCTGACAAGGTTCGACCACGTGGTTGGAAACGTTCCCGAGATGGCTCCAGTGATCGATTACATGAAGGGCTTCCTTGGATTCCATGAGTTCGCCGAGTTCACTGCTGAGGACGTGGGAACCACTGAGTCCGGTTTGAACTCTGTGGTTCTCGCCAACAATTCTGAGGCTGTTTTGCTCCCTCTGAATGAGCCTGTGCATGGAACCAAGAGGAGAAGCCAGATTCAAACTTACCTGGAGTACCACGGTGGCCCTGGAGTTCAGCATATCGCCCTTGCTTCTAATGATGTGTTGCGCACACTCAGAGAGATGCGCGCCAGAACCCCCATGGGAGGTTTCGAGTTCATGGCCCCACCACAGGCTAAGTACTACGAGGGCGTTAGAAGGATTGCTGGAGACGTGTTGAGCGAGGAGCAGATCAAGGAGTGCCAAGAGCTGGGTGTTCTTGTGGATAGGGATGACCAGGGCGTTCTGCTTCAAATTTTCACTAAGCCAGTGGGCGACCGCCCTACATTCTGGCTTGAGATGATTCAAAGAATCGGCTGCATGGAGAAGGATGAGGTTGGACAGGAGTACCAAAAGGGCGGATGCGGTGGCTTCGGAAAGGGTAACTTCAGCGAGTTGTTCAAGTCAATCGAGGACTACGAGAAGAGCCTCGAGGTGAAGCAGTCAGTGGTTGCCCAAAAGTCCTGA
modifications: AsHPPDm-A107-F383W-02 Nucleotide Sequence
notes: vector DBN11779
[1]; isoxaflutole 140 g ai/ha (2×)
  Resistance evaluation: Moderately
  Classification and statistics of the grade of pesticide damage Grade 0: 7
  Classification and statistics of the grade of pesticide damage Grade 1: 7
  Classification and statistics of the grade of pesticide damage Grade 2: 1
  Classification and statistics of the grade of pesticide damage Grade 3: 1
  Scores: 25
[1]; isoxaflutole 280 g ai/ha (4×)
  Resistance evaluation: Poorly resistant
  Classification and statistics of the grade of pesticide damage Grade 0: 4
  Classification and statistics of the grade of pesticide damage Grade 1: 4
  Classification and statistics of the grade of pesticide damage Grade 2: 7
  Classification and statistics of the grade of pesticide damage Grade 3: 1
  Scores: 44
[2]; mesotrione 210 g ai/ha (2×)
  Resistance evaluation: Moderately
  Classification and statistics of the grade of pesticide damage Grade 0: 4
  Classification and statistics of the grade of pesticide damage Grade 1: 9
  Classification and statistics of the grade of pesticide damage Grade 2: 3
  Classification and statistics of the grade of pesticide damage Grade 3: 0
  Scores: 31
[2]; mesotrione 420 g ai/ha (4×)
  Resistance evaluation: Poorly resistant
  Classification and statistics of the grade of pesticide damage Grade 0: 0
  Classification and statistics of the grade of pesticide damage Grade 1: 2
  Classification and statistics of the grade of pesticide damage Grade 2: 14
  Classification and statistics of the grade of pesticide damage Grade 3: 0
  Scores: 63
